Test results as given in patent US20240301064A1 (published 2024).
Where a chain is given by its changes, count along the chain named. Blank lines part the entries; values can stand above or below the binder they belong to.

Tests used:
Insulin = target: T1, Insulin; experiment: ELISA on coated insulin, 100 nM antibody
T1 construct: polyreactivity antigen

human PD-1 [1] = target: T2, human PD-1 (human, UniProt Q15116 25-167, limits assumed); experiment: ELISA on coated huPD-1
T2 construct: also called huPD-1
T2 sequence (Q15116 25-167 limits assumed): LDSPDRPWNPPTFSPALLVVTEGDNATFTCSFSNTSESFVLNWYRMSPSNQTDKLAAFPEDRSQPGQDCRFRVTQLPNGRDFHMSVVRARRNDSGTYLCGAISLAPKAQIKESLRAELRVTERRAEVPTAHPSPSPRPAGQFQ
Experimental: Plates were coated with 2 μg/mL huPD-1 in 1×PBS at 4° C. overnight. Plates were blocked with 1×PBS with 1% BSA. Antibodies were tested in duplicate for binding with a 3-fold, dilution series from 300 nM to 0.4 nM. Signal is background subtracted for coated wells with 2° antibody only. […] PD-1 agonists comprising germline mutations bind to human PD-1.

human PD-1 [2] = target: T2, human PD-1; experiment: BLI, antibody on AHC tip, soluble PD-1

T1 sequence (P01308 25-54, chain 1 of 2): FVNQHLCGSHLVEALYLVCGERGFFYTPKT
T1 sequence (P01308 90-110, chain 2 of 2): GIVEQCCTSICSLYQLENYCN

B1: MIAB133 (antibody, human IgG1, kappa)
heavy: EVQLLESGGGLVQPGGSLRLSCAASGFTFSSFWMHWVRQAPGKGLEWISYISGDSGYTNYADSVKGRFTISRDNSKNTLYLQMNSLRAEDTAVYYCARDRPYYYYMDVWGKGTTVTVSSASTKGPSVFPLAPSSKSTSGGTAALGCLVKDYFPEPVTVSWNSGALTSGVHTFPAVLQSSGLYSLSSVVTVPSSSLGTQTYICNVNHKPSNTKVDKKVEPKSCDKTHTCPPCPAPEAAGAPSVFLFPPKPKDTLMISRTPEVTCVVVDVSHEDPEVKFNWYVDGVEVHNAKTKPREEQYNSTYRVVSVLTVLHQDWLNGKEYKCKVSNKALPAPIEKTISKAKGQPREPQVYTLPPSREEMTKNQVSLTCLVKGFYPSDIAVEWESNGQPENNYKTTPPVLDSDGSFFLYSKLTVDKSRWQQGNVFSCSVMHEALHNHYTQKSLSLSPGGGGGSAPTSSSTKKTQLQLEHLLLDLQMILNGINNYKNPKLTRMLTFKFYMPKKATELKHLQCLEEELKPLEEALNLAPSKNFHLRPRDLISDINVIVLELKGSETTFMCEYADETATIVEFINRWITFSQSIISTLT
light: DIQMTQSPSSLSASVGDRVTITCRASQSVSRSLAWYQQKPGKAPKLLIYAASSLQSGVPSRFSGSGSGTDFTLTISSLQPEDFATYYCQQYKSYPVTFGQGTKVEIKRTVAAPSVFIFPPSDEQLKSGTASVVCLLNNFYPREAKVQWKVDNALQSGNSQESVTEQDSKDSTYSLSSTLTLSKADYEKHKVYACEVTHQGLSSPVTKSFNRGEC
notes: also called MIAB133-001
Insulin polyreactivity score (Insulin): 13.2

B2: MIAB136 (antibody, human IgG1, kappa)
heavy: B1 heavy with F32Y, W33A, H35S
light: B1 light
Insulin polyreactivity score (Insulin): 75.4

B3: MIAB137 (antibody, human IgG1, kappa)
heavy: B1 heavy with S31D, I48V, Y50A, D54S, S55G, Y57S, N59Y
light: B1 light
Insulin polyreactivity score (Insulin): 67.3

B4: MIAB146 (antibody, human IgG1, kappa)
heavy: B1 heavy with S31D
light: B1 light with R31S
notes: also called MIAB146-001
Insulin polyreactivity score (Insulin): 2.61

B5: MIAB147 (antibody, human IgG1, kappa)
heavy: B1 heavy with S31D
light: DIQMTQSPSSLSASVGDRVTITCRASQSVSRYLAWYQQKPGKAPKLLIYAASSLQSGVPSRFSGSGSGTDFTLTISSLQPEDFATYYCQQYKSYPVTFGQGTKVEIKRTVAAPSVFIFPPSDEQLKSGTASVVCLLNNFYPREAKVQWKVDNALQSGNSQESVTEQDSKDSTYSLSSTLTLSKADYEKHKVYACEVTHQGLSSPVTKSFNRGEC
notes: also called MIAB147-001
Insulin polyreactivity score (Insulin): 3.81

B6: MIAB145 (antibody, human IgG1, kappa)
heavy: B1 heavy with S31D
light: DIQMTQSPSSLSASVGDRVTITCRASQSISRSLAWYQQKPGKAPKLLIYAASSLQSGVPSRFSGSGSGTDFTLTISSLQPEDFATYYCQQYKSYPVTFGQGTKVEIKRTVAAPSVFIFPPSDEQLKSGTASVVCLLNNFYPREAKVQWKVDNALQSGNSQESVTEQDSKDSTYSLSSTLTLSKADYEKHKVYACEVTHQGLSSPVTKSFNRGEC
notes: also called MIAB145-001
Insulin polyreactivity score (Insulin): 4.58

B7: MIAB149 (antibody, human IgG1, kappa)
heavy: B1 heavy with S31D
light: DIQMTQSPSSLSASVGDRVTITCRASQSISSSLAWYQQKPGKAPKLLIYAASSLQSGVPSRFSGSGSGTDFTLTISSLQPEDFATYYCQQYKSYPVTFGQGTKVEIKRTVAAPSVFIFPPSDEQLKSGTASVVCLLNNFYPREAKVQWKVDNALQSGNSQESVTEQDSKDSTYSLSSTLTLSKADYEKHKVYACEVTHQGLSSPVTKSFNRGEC
notes: also called MIAB149-001
Insulin polyreactivity score (Insulin): 3.53

B24: PMAB217 (bispecific antibody, human IgG1, kappa)
heavy: QVQLVQSGAEVKKPGASVKVSCKASGYTFSDHYMHWVRQAPGQGLEWMGTIAPSGGRTSYAQKFQGRVTMTRDTSTSTVYMELSSLRSEDTAVYYCAADNGHASGWLYYYGMDVWGQGTTVTVSSASTKGPSVFPLAPSSKSTSGGTAALGCLVKDYFPEPVTVSWNSGALTSGVHTFPAVLQSSGLYSLSSVVTVPSSSLGTQTYICNVNHKPSNTKVDKKVEPKSCDKTHTCPPCPAPEAAGAPSVFLFPPKPKDTLMISRTPEVTCVVVDVSHEDPEVKFNWYVDGVEVHNAKTKPREEQYNSTYRVVSVLTVLHQDWLNGKEYKCKVSNKALPAPIEKTISKAKGQPREPQVYTLPPSREEMTKNQVSLTCLVKGFYPSDIAVEWESNGQPENNYKTTPPVLDSDGSFFLYSKLTVDKSRWQQGNVFSCSVMHEALHNHYTQKSLSLSPGGGGGSGGGGSGGGGSEVQLLESGGGLVQPGGSLRLSCAASGFTFSDFWMHWVRQAPGKGLEWISYISGDSGYTNYADSVKGRFTISRDNSKNTLYLQMNSLRAEDTAVYYCARDRPYYYYMDVWGKGTTVTVSSGGGGSGGGGSGGGGSGGGGSDIQMTQSPSSLSASVGDRVTITCRASQSVSRSLAWYQQKPGKAPKLLIYAASSLQSGVPSRFSGSGSGTDFTLTISSLQPEDFATYYCQQYKSYPVTFGQGTKVEIK
light: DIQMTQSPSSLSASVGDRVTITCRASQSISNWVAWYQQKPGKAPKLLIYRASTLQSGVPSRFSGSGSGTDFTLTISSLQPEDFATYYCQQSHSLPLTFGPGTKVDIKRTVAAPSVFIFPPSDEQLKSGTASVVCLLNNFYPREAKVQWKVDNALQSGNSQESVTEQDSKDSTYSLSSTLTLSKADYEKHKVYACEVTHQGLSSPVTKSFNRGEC
Kd (human PD-1 [2]): 424 nM

B25: PMAB201 (bispecific antibody, human IgG1, kappa)
heavy: B24 heavy with S30T
light: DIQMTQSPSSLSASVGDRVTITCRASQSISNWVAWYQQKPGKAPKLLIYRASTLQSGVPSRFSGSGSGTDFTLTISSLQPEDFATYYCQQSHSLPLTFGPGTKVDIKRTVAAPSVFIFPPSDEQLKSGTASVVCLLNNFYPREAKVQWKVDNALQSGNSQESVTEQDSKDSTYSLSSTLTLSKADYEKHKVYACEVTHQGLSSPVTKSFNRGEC
Kd (human PD-1 [2]): 341 nM

B26: PMAB205 (bispecific antibody, human IgG1, kappa)
heavy: B24 heavy with R57S
light: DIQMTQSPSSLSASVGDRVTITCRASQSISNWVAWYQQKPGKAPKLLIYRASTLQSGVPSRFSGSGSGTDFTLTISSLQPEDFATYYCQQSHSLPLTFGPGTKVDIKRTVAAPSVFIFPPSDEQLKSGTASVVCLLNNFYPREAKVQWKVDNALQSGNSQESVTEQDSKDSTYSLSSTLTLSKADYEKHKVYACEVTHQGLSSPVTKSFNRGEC
Kd (human PD-1 [2]): 795 nM

B27: PMAB207 (bispecific antibody, human IgG1, kappa)
heavy: B24 heavy
light: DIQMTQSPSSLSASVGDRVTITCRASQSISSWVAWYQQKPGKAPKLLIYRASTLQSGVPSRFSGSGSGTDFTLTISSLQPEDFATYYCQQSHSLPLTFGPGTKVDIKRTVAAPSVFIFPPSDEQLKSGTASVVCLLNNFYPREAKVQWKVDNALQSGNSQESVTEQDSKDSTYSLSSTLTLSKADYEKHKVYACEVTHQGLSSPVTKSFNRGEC
Kd (human PD-1 [2]): 445 nM

B28: PMAB210 (bispecific antibody, human IgG1, kappa)
heavy: B24 heavy
light: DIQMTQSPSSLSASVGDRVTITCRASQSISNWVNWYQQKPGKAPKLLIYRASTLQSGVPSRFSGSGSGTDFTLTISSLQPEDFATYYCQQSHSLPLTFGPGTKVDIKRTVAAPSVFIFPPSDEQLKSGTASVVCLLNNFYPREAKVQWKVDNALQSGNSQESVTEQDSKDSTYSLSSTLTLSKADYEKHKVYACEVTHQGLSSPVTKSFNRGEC
Kd (human PD-1 [2]): 3130 nM

B29: PMAB202 (bispecific antibody, human IgG1, kappa)
heavy: B24 heavy with D31S
light: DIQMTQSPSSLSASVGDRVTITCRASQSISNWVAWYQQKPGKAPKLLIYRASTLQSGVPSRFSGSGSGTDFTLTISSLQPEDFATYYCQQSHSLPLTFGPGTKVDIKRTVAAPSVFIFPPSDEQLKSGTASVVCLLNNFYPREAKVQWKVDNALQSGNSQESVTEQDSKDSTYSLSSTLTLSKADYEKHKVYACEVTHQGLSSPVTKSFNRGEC
Kd (human PD-1 [2]): 755 nM

B32: PMAB204 (bispecific antibody, human IgG1, kappa)
heavy: B24 heavy with T50I
light: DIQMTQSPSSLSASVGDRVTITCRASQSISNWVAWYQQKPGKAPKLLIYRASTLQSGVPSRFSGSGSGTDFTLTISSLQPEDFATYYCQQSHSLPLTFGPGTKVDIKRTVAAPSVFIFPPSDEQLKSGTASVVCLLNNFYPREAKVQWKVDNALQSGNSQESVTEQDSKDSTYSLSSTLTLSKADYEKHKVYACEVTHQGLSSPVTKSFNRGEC
Kd (human PD-1 [2]): 1710 nM

B33: PMAB209 (bispecific antibody, human IgG1, kappa)
heavy: B24 heavy
light: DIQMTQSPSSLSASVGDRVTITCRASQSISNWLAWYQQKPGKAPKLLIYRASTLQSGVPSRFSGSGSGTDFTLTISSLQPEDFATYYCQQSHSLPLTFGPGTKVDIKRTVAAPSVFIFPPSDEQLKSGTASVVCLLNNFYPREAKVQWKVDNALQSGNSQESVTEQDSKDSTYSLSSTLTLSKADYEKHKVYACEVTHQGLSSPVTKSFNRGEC
Kd (human PD-1 [2]): 687 nM

B34: PMAB211 (bispecific antibody, human IgG1, kappa)
heavy: B24 heavy
light: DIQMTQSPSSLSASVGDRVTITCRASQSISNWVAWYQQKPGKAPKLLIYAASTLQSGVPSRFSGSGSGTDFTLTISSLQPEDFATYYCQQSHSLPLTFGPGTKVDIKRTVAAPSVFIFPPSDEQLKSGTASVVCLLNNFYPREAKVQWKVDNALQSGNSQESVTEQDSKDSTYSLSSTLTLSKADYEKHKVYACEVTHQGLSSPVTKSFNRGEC
Kd (human PD-1 [2]): 1300 nM

B35: PMAB208 (bispecific antibody, human IgG1, kappa)
heavy: B24 heavy
light: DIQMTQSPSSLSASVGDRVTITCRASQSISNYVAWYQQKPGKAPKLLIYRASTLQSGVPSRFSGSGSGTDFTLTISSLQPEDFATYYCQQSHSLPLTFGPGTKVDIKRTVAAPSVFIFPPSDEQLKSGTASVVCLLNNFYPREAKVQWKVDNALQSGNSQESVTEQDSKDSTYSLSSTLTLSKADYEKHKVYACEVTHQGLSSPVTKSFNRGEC
Kd (human PD-1 [2]): 553 nM

B36: PMAB212 (bispecific antibody, human IgG1, kappa)
heavy: B24 heavy
light: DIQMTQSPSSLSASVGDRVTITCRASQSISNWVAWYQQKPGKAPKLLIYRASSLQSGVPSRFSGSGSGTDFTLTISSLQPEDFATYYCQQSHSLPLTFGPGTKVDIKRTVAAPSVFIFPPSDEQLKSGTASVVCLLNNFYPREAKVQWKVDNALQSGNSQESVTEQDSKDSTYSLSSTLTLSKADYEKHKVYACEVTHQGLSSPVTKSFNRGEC
Kd (human PD-1 [2]): 1090 nM

The remaining lines, values ahead:

IC50 (human PD-1 [1]): 85.9 nM
B8: PMAB233 (antibody, human IgG1, kappa, V domains shown)
VH: QVQLVQSGAEVKKPGASVKVSCKASGYTFTTYYMHWVRQAPGQGLEWMGIIQPSGGSTSYAQKFQGRVTMTRDTSTSTVYMELSSLRSEDTAVYYCASGWVYWGQGTLVTVSS
VL: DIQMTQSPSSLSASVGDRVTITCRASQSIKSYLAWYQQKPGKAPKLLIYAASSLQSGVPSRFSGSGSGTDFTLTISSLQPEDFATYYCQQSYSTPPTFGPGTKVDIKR

IC50 (human PD-1 [1]): 23.2 nM
B9: PMAB235 (antibody, human IgG1, kappa, V domains shown)
VH: B8 VH
VL: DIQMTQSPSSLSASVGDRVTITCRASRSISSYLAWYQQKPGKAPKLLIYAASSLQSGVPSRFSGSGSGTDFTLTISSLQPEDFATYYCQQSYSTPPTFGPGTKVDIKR

IC50 (human PD-1 [1]): 15.9 nM
B10: PMAB237 (antibody, human IgG1, kappa, V domains shown)
VH: B8 VH
VL: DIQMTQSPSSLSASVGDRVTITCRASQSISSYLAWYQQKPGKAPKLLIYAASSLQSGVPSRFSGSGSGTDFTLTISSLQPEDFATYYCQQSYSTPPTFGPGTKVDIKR

IC50 (human PD-1 [1]): 44.7 nM
B11: PMAB239 (antibody, human IgG1, kappa, V domains shown)
VH: B8 VH with T28S, T31S
VL: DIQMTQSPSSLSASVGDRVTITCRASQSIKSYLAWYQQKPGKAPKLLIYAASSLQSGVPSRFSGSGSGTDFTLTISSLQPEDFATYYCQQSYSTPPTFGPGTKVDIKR

Kd (human PD-1 [2]): 849 nM
B12: PMAB275 (antibody, human IgG1, kappa, V domains shown)
VH: B8 VH with Q1E, T28S, T31S, Q52N
VL: DIQMTQSPSSLSASVGDRVTITCQASRDIKNYLAWYQQKPGKAPKLLIYAASSLQSGVPSRFSGSGSGTDFTLTISSLQPEDFATYYCQQSYSTPPTFGPGTKVDIKR

IC50 (human PD-1 [1]): 258 nM
B13: PMAB244 (antibody, human IgG1, kappa, V domains shown)
VH: B8 VH with T28S
VL: B12 VL

Kd (human PD-1 [2]): 896 nM
B14: PMAB277 (antibody, human IgG1, kappa, V domains shown)
VH: B8 VH with Q1E, Q52N
VL: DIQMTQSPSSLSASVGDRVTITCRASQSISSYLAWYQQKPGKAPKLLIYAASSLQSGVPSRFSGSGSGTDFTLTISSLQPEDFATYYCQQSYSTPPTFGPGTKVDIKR

IC50 (human PD-1 [1]): 30.6 nM
B15: PMAB242 (antibody, human IgG1, kappa, V domains shown)
VH: B8 VH with T28S, T31S
VL: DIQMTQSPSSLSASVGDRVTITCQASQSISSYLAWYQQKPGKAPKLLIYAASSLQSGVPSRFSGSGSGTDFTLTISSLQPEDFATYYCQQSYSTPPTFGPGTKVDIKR

Kd (human PD-1 [2]): 985 nM
B16: PMAB276 (antibody, human IgG1, kappa, V domains shown)
VH: B8 VH with Q1E, T28S, Q52N
VL: B12 VL

IC50 (human PD-1 [1]): 46.4 nM
B17: PMAB241 (antibody, human IgG1, kappa, V domains shown)
VH: B8 VH with T28S, T31S
VL: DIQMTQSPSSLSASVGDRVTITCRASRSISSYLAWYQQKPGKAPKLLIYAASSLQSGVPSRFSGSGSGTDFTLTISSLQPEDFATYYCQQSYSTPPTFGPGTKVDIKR

IC50 (human PD-1 [1]): 40.7 nM
B18: PMAB243 (antibody, human IgG1, kappa, V domains shown)
VH: B8 VH with T28S, T31S
VL: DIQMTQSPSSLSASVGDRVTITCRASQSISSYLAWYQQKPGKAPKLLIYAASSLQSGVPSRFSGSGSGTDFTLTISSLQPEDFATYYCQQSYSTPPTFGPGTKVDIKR

Kd (human PD-1 [2]): 1790 nM
B19: PMAB274 (antibody, human IgG1, kappa, V domains shown)
VH: B8 VH with Q1E, Q52N
VL: B12 VL

IC50 (human PD-1 [1]): 28.1 nM
B20: PMAB234 (antibody, human IgG1, kappa, V domains shown)
VH: B8 VH
VL: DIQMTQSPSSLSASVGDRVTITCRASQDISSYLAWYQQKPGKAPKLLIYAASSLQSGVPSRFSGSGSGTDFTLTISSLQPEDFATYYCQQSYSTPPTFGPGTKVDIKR

IC50 (human PD-1 [1]): 36.4 nM
B21: PMAB238 (antibody, human IgG1, kappa, V domains shown)
VH: B8 VH with T28S, T31S
VL: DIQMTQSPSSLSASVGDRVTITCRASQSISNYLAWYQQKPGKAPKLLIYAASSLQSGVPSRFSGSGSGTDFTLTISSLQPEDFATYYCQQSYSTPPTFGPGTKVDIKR

Kd (human PD-1 [2]): 892 nM
B22: PMAB278 (antibody, human IgG1, kappa, V domains shown)
VH: B8 VH with Q1E, T28S, T31S, Q52N
VL: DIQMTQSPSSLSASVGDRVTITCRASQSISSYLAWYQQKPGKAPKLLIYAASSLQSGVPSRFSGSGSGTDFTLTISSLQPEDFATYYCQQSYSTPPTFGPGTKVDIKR

IC50 (human PD-1 [1]): 39 nM
B23: PMAB240 (antibody, human IgG1, kappa, V domains shown)
VH: B8 VH with T28S, T31S
VL: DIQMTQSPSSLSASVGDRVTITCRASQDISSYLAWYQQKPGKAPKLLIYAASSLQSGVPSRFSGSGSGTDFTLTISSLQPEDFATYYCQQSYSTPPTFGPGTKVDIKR

Kd (human PD-1 [2]): 1430 nM
B30: PMAB213 (bispecific antibody, human IgG1, kappa)
heavy: B24 heavy
light: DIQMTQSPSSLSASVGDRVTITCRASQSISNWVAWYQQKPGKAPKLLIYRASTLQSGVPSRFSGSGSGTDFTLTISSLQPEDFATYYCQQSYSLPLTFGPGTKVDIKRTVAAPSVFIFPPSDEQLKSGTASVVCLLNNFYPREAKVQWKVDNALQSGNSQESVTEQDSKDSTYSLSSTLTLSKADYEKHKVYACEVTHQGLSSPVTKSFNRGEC

Kd (human PD-1 [2]): 8050 nM
B31: PMAB214 (bispecific antibody, human IgG1, kappa)
heavy: B24 heavy
light: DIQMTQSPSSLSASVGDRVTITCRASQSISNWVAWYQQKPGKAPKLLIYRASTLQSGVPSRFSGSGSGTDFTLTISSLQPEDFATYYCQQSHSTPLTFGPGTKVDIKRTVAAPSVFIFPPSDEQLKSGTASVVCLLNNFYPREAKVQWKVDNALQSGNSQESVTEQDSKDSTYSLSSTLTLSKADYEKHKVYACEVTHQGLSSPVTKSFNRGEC
